Results: patent US20140186359A1 (TORAY INDUSTRIES, published 2014)
Changes are numbered by the printed parent chain.

T1: human CAPRIN-1 expressed on the surface of human cancer cells (human, UniProt Q14444 2-709)
T1 sequence: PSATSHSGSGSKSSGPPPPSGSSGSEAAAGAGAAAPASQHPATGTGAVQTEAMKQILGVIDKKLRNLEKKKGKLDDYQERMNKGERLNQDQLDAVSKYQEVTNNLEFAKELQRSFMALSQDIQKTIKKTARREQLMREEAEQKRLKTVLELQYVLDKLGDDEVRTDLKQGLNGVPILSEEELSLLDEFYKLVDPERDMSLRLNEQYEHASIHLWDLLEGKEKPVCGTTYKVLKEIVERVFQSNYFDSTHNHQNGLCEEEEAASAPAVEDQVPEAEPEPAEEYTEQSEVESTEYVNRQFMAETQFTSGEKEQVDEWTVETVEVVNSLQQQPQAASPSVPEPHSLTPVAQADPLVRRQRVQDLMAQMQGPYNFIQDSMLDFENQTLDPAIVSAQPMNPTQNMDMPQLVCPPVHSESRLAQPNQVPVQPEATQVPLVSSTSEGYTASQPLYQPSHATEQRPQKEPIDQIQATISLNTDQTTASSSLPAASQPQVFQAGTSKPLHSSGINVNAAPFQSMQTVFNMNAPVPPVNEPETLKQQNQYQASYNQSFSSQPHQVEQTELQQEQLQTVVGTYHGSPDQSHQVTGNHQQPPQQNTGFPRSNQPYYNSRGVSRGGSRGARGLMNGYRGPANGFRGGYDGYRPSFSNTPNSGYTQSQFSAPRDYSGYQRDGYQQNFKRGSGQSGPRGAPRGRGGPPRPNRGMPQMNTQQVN

B1: human-mouse chimeric comparative monoclonal antibody 3 (antibody, human IgG1, kappa)
heavy: not shown
light: RTTSHMDSDIQLTQSPASLSASVGETVTITCRASGNIHNYLAWYQQKQGKSPQLLVYNAKTLADGVPSRFSGSGSGTQYSLKINSLQPEDFGSYYCQHFWSTLTFGGGTKLEIKQSDTVAAPSVFIFPPSDEQLKSGTASVVCLLNNFYPREAKVQWKVDNALQSGNSQESVTEQDSKDSTYSLSSTLTLSKADYEKHKVYACEVTHQGLSSPVTKSFNRGEC
B2: human-mouse chimeric monoclonal antibody #1 (antibody, V domains shown)
VH: GPGLVQPSQSLSITCTVSGFSLTTYDLHWVRQSPGKGLEWLGVIWSGGSTDYNAAFISRLSISKDNSKSQVFFKMNSLQANDTAIYYCARNYGYSAWFAYWGQGTLVTVSA
VL: DVLMTQTPLSLPVSLGDQASISCRSSQSIVHSNGNTYLEWYLQKPGQSPKLLIYKVSNRFSGVPDRFSGSGSGTDFTLKISRVEAEDLGVYYCFQGSHVPLTFGAGTKLELKR
B3: human-mouse chimeric monoclonal antibody #2 (antibody, human IgG1, kappa, V domains shown)
VH: GGGLVKPGGSLKLSCAASGFTFSSYGMSWVRQTPEKRLEWVATISSGGSYTYYPDSVKGRFTISRDNAKNTLYLQMSSLRSEDTAMYYCASLASYYFDYWGQGTTLTVSS
VL: GARCDVQMIQSPSSLSASLGDIVTMTCQASQGTSINLNWFQQKPGKAPKLLIYGASSLEDGVPSRFSGSCFGTDFTLTISSLEDEDMATYFCLQHSYLPPLTFGAGTKLELKR
B4: human-mouse chimeric monoclonal antibody #3 (antibody, human IgG1, kappa, V domains shown)
VH: B3 VH
VL: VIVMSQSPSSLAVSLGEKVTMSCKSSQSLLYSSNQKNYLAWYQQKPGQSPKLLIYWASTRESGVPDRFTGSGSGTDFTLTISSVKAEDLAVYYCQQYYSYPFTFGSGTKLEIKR
B5: human-mouse chimeric comparative monoclonal antibody 2 (antibody, human IgG1, kappa)
heavy: not shown
light: AVLRCSRGLLVIWISDIQLTQSPSSLAVTAGEKVTMSCKSSQSLLWSVNQKNYLSWYQQKQRQPPKLLIYGASIRESWVPDRFTGSGSGTDFTLTISNVHAEDLAVYYCQHNHGSFLPSRSEQVPSWRSNNRTVAAPSVFIFPPSDEQLKSGTASVVCLLNNFYPREAKVQWKVDNALQSGNSQESVTEQDSKDSTYSLSSTLTLSKADYEKHKVYACEVTHQGLSSPVTKSFNRGEC
B6: human-mouse chimeric comparative monoclonal antibody 5 (antibody, human IgG1, kappa)
heavy: not shown
light: GLFCSVERCHYQLQSSQNLLSIVNRYHYMSGNPPKLLVYPALLIYEASITKSCVPDRFTRSGSGTNFTLTINFVHADDLIFYYCQHNRGSFLPSSSVQVPRRRSNTVAAPSVFIFPPSDEQLKSGTASVVCLLNNFYPREAKVQWKVDNALQSGNSQESVTEQDSKDSTYSLSSTLTLSKADYEKHKVYACEVTHQGLSSPVTKSFNRGEC
B7: human-mouse chimeric comparative monoclonal antibody 1 (antibody, human IgG1, kappa)
heavy: not shown
light: DIQMTQSPASLSASVGETVTITCRASGNIHNYLAWYQQKQGKSPQLLVYNAKTLADGVPSRFSGSGSGTQYSLKINSLQPEDFGSYYCQHFWSTLTFGAGTKLELKRADAAPTVSNPYDTVAAPSVFIFPPSDEQLKSGTASVVCLLNNFYPREAKVQWKVDNALQSGNSQESVTEQDSKDSTYSLSSTLTLSKADYEKHKVYACEVTHQGLSSPVTKSFNRGEC
B8: human-chicken chimeric monoclonal antibody #4 (antibody, V domains shown)
VH: AVTLDESGGGLQTPGGAVSLVCKGSGFTFSSYGMGWVRQAPGKGLEYVAAIRKDGSTNYGPAVKGRATISRDNGQSTVRLQLSNLRAEDTATYYCAKRSHTGVNAAKIDAWGRGTEVIVS
VL: ALTQPASVSANPGETVKITCSGASHNYGWFQQKSPGSAPVTVIYSNDKRPSDIPSRFSGSKSGSTATLTITGVQADDEAVYFCGGYNIYGPTFGAGTTLTV
B9: human-mouse chimeric comparative monoclonal antibody 4 (antibody, human IgG1, kappa, V domains shown)
VH: EVQLHQFGAELVKPGASVKISCKASGYTFTDYNMDWVKQSHGKSLEWIGDINPNYDSTSYNQKFKGKATLTVDKSSSTAYMELRSLTSEDTAVYYCARSRSYDYEGFAYWGQGTLVTVSA
VL: SGDRVSLSCRASQSISNYLHWYQQKSHESPRLLIKYASQSISGIPSRFSGSGSGTDFTLSINSVETEDFGMYFCQQSNSWPYTFGAGTKLEIKQ
B10: human-chicken chimeric monoclonal antibody #3 (antibody, V domains shown)
VH: AVTLDESGGGLQTPGGGLSLVCKGSGFTFSSFGMFWVRQAPGKGLEFVASISDNGRSTYYGSAVKGRATISRDDGQSTVRLQLNNLRAEDTGTYYCAKNAYVGRGCCFSYSIDAWGHGTEVIVS
VL: ALTQPASVSVNPGETVKITCSGGGSSSDAYGWYQQKSPGSAPVTLIYNGSNRPSHIPSRFSGSTSGSTNTLTITGVQVEDEAIYFCGSTDTSTSVGIFGAGTTLTV
B11: human-chicken chimeric monoclonal antibody #1 (antibody, V domains shown)
VH: AVTLDESGGGLQTPGGALSLVCKASGFTFRSHSMFWVRQAPGKGLEYVAGIYGVGRSIRYGSAVKGRATMSRDNGQSTVRLQLNNLRAEDTATYYCAKSGYFSNSRYWDSGAYFIDAWGHGTEVIVS
VL: ALTQPASVSANPGETVEITCSGGYSNYGWYQQKSPGSAPVTVIYYNDKRPSDIPSRFSGSKSGSTATLTITGVQAEDEAVYFCGGYDSSTDAGIFGAGTTLTV
B12: human-chicken chimeric monoclonal antibody #2 (antibody, V domains shown)
VH: B11 VH with A92G, S105R
VL: B11 VL with P12L, E14G, A66G, Q74R, F82Y

Molecular target: T1, human CAPRIN-1 expressed on the surface …
Test: cell-based or functional assay
Throughout, for ADCC cytotoxic activity (51Cr release) against A549: test concentration or dose not given here.
Throughout, for ADCC cytotoxic activity (51Cr release) against Caki-1: test concentration or dose not given here.
Throughout, for ADCC cytotoxic activity (51Cr release) against Caki-2: test concentration or dose not given here.
Throughout, for ADCC cytotoxic activity (51Cr release) against DLD-1: test concentration or dose not given here.
Throughout, for ADCC cytotoxic activity (51Cr release) against HCT-116: test concentration or dose not given here.
Throughout, for ADCC cytotoxic activity (51Cr release) against MCF7: test concentration or dose not given here.
Throughout, for ADCC cytotoxic activity (51Cr release) against MDA-MB-436: test concentration or dose not given here.
Throughout, for ADCC cytotoxic activity (51Cr release) against MIAPaCa-2: test concentration or dose not given here.
Throughout, for ADCC cytotoxic activity (51Cr release) against Panc-1: test concentration or dose not given here.
Throughout, for ADCC cytotoxic activity (51Cr release) against QG56: test concentration or dose not given here.

Binder | ADCC cytotoxic activity (51Cr release) against Caki-2 [%] | ADCC cytotoxic activity (51Cr release) against HCT-116 [%] | ADCC cytotoxic activity (51Cr release) against MCF7 [%] | ADCC cytotoxic activity (51Cr release) against MIAPaCa-2 [%] | ADCC cytotoxic activity (51Cr release) against QG56 [%] | ADCC cytotoxic activity (51Cr release) against all other cancer cell lines listed [%] | ADCC cytotoxic activity (51Cr release) against A549 [%] | ADCC cytotoxic activity (51Cr release) against Caki-1 [%] | ADCC cytotoxic activity (51Cr release) against DLD-1 [%] | ADCC cytotoxic activity (51Cr release) against MDA-MB-436 [%] | ADCC cytotoxic activity (51Cr release) against Panc-1 [%]
B1 | < 8 | < 3 | < 5 | 7 | < 5 | < 4 |  |  |  |  | 
B2 | ≥ 34 | ≥ 19 | ≥ 30 | ≥ 28 | ≥ 10 | ≥ 10 |  |  |  |  | 
B3 | ≥ 18 | ≥ 18 | ≥ 32 | ≥ 32 | ≥ 10 | ≥ 10 |  |  |  |  | 
B4 | ≥ 18 | ≥ 18 | ≥ 32 | ≥ 32 | ≥ 10 | ≥ 10 |  |  |  |  | 
B5 | < 8 | < 3 | < 5 | 7 | < 5 | < 4 |  |  |  |  | 
B6 | < 8 | < 3 | < 5 | 7 | < 5 | < 4 |  |  |  |  | 
B7 | < 8 | < 3 | < 5 | 7 | < 5 | < 4 |  |  |  |  | 
B8 | ≥ 34 | ≥ 19 | ≥ 30 | ≥ 28 | ≥ 10 | ≥ 10 | ≥ 12 | ≥ 14 | ≥ 15 | ≥ 18 | ≥ 18
B9 | < 8 | < 3 | < 5 | 7 | < 5 | < 4 |  |  |  |  | 
B10 | ≥ 34 | ≥ 19 | ≥ 30 | ≥ 28 | ≥ 10 | ≥ 10 | ≥ 12 | ≥ 14 | ≥ 15 | ≥ 18 | ≥ 18
B11 | ≥ 34 | ≥ 19 | ≥ 30 | ≥ 28 | ≥ 10 | ≥ 10 | ≥ 12 | ≥ 14 | ≥ 15 | ≥ 18 | ≥ 18
B12 | ≥ 34 | ≥ 19 | ≥ 30 | ≥ 28 | ≥ 10 | ≥ 10 | ≥ 12 | ≥ 14 | ≥ 15 | ≥ 18 | ≥ 18
